From US20260001928A1 (CORTERIA PHARMACEUTICALS, priority 2022, published 2026)
*1 amine or outer side, *2 acyl side, *3 side chain or, on linkers, in order; H or OH if unused. Where no end group is shown, it is not given here. Side-chain parts run from the residue outwards. [ ]: non-standard residue; d: D form. The star is where a group is joined. C20 diacid = O=C(O)CCCCCCCCCCCCCCCCCCC(=O)*; γGlu = O=C(O)[C@H](CCC(=O)[*:2])N[*:1]; NMeI = CC[C@H](C)[C@H](NC)C(=O)O; Pentanoyl = CCCCC(=O)*; Aib = CC(C)(N)C(=O)O

Legend:
[1] = target: human corticotropin-releasing factor 2a (CRF2a receptor) (human), Q13324; test: cell-based or functional assay
[2] = target: T1, CRF1R receptor (UniProt P34998 24-415, limits assumed); test: cell-based or functional assay
T1 sequence (looked up): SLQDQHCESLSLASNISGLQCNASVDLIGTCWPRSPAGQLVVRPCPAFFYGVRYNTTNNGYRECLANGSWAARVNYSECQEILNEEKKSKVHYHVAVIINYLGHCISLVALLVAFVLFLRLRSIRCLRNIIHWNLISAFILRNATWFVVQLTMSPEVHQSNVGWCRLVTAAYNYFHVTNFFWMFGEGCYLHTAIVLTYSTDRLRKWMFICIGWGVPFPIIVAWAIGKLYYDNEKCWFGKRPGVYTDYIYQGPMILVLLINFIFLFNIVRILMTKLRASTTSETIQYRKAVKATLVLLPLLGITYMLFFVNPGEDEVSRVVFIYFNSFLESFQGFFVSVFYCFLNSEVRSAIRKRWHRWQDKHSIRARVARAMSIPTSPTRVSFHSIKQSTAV

Chain of human corticotropin-releasing factor 2a (CRF2a receptor) (human), Q13324 (Q13324 20-411): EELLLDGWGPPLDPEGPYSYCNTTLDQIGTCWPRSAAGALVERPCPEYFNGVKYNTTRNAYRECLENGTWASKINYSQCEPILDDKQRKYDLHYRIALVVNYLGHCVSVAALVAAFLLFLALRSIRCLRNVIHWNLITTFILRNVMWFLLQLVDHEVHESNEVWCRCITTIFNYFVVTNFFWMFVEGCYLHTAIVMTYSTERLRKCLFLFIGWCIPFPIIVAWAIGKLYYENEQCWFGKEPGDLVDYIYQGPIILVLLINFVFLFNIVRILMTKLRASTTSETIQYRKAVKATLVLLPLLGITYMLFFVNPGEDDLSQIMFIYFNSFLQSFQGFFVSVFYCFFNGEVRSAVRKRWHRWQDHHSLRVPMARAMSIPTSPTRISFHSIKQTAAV

B1: SEQ ID NO 219 (peptide)
peptide: Pentanoyl-VLSLD[dV]PIKLK([γGlu-C20 diacid])KILLEQEKQKKQREQAETN[Aib]QILAQV-NH2
SMILES: CCCCC(=O)N[C@H](C(=O)N[C@@H](CC(C)C)C(=O)N[C@@H](CO)C(=O)N[C@@H](CC(C)C)C(=O)N[C@@H](CC(=O)O)C(=O)N[C@@H](C(=O)N1CCC[C@H]1C(=O)N[C@H](C(=O)N[C@@H](CCCCN)C(=O)N[C@@H](CC(C)C)C(=O)N[C@@H](CCCCNC(=O)CC[C@H](NC(=O)CCCCCCCCCCCCCCCCCCC(=O)O)C(=O)O)C(=O)N[C@@H](CCCCN)C(=O)N[C@H](C(=O)N[C@@H](CC(C)C)C(=O)N[C@@H](CC(C)C)C(=O)N[C@@H](CCC(=O)O)C(=O)N[C@@H](CCC(N)=O)C(=O)N[C@@H](CCC(=O)O)C(=O)N[C@@H](CCCCN)C(=O)N[C@@H](CCC(N)=O)C(=O)N[C@@H](CCCCN)C(=O)N[C@@H](CCCCN)C(=O)N[C@@H](CCC(N)=O)C(=O)N[C@@H](CCCNC(=N)N)C(=O)N[C@@H](CCC(=O)O)C(=O)N[C@@H](CCC(N)=O)C(=O)N[C@@H](C)C(=O)N[C@@H](CCC(=O)O)C(=O)N[C@H](C(=O)N[C@@H](CC(N)=O)C(=O)NC(C)(C)C(=O)N[C@@H](CCC(N)=O)C(=O)N[C@H](C(=O)N[C@@H](CC(C)C)C(=O)N[C@@H](C)C(=O)N[C@@H](CCC(N)=O)C(=O)N[C@H](C(N)=O)C(C)C)[C@@H](C)CC)[C@@H](C)O)[C@@H](C)CC)[C@@H](C)CC)C(C)C)C(C)C
In the case of B1, the EC50 [nM] (cAMP) [1] is reported as 0.16 nM, the “EC50” value [2] is reported as 222 nM and the “Emax (% I)” value [2] is reported as 48%.

B2: SEQ ID NO 218 (peptide)
peptide: [NMeI]VLSLD[dV]PIKLK([γGlu-C20 diacid])KILLEQEKQKEQREQAETN[Aib]QILAQV-NH2
modifications: N-terminus assumed
SMILES: CC[C@H](C)[C@H](NC)C(=O)N[C@H](C(=O)N[C@@H](CC(C)C)C(=O)N[C@@H](CO)C(=O)N[C@@H](CC(C)C)C(=O)N[C@@H](CC(=O)O)C(=O)N[C@@H](C(=O)N1CCC[C@H]1C(=O)N[C@H](C(=O)N[C@@H](CCCCN)C(=O)N[C@@H](CC(C)C)C(=O)N[C@@H](CCCCNC(=O)CC[C@H](NC(=O)CCCCCCCCCCCCCCCCCCC(=O)O)C(=O)O)C(=O)N[C@@H](CCCCN)C(=O)N[C@H](C(=O)N[C@@H](CC(C)C)C(=O)N[C@@H](CC(C)C)C(=O)N[C@@H](CCC(=O)O)C(=O)N[C@@H](CCC(N)=O)C(=O)N[C@@H](CCC(=O)O)C(=O)N[C@@H](CCCCN)C(=O)N[C@@H](CCC(N)=O)C(=O)N[C@@H](CCCCN)C(=O)N[C@@H](CCC(=O)O)C(=O)N[C@@H](CCC(N)=O)C(=O)N[C@@H](CCCNC(=N)N)C(=O)N[C@@H](CCC(=O)O)C(=O)N[C@@H](CCC(N)=O)C(=O)N[C@@H](C)C(=O)N[C@@H](CCC(=O)O)C(=O)N[C@H](C(=O)N[C@@H](CC(N)=O)C(=O)NC(C)(C)C(=O)N[C@@H](CCC(N)=O)C(=O)N[C@H](C(=O)N[C@@H](CC(C)C)C(=O)N[C@@H](C)C(=O)N[C@@H](CCC(N)=O)C(=O)N[C@H](C(N)=O)C(C)C)[C@@H](C)CC)[C@@H](C)O)[C@@H](C)CC)[C@@H](C)CC)C(C)C)C(C)C
With B2 the EC50 [nM] (cAMP) [1] was 0.11 nM and the “Emax (% I)” value [2] was 24%.
